Source: US20260232827A1 (Zymeworks, published 2026)

T1: Full length human NaPi2b (sodium-dependent phosphate transporter 2B, SLC34A2) (human, UniProt O95436 1-690)
T1 construct: also called huNaPi2b; CL_#13432
T1 sequence: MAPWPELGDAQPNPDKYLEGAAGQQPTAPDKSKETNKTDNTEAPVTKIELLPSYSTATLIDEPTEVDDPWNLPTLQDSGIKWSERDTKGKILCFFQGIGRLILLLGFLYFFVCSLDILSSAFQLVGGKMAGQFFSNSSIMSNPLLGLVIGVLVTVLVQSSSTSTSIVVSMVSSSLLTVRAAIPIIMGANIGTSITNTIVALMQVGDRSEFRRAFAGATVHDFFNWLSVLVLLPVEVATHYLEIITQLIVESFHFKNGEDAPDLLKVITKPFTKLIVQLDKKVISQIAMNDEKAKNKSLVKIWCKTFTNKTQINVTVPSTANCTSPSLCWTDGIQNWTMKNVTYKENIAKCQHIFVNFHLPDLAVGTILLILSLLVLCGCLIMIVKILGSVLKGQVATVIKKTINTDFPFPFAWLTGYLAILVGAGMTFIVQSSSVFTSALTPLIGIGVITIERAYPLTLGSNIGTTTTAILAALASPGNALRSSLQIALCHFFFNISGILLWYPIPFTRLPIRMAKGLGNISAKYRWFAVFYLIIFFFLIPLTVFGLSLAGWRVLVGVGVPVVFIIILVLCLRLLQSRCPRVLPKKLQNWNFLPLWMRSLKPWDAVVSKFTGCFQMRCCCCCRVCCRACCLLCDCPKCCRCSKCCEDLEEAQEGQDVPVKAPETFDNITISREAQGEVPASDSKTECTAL

T2: Construct 6 (human NaPi2b del 317-333) (human, UniProt O95436 1-690)
T2 construct: also called CL_#29919
T2 sequence: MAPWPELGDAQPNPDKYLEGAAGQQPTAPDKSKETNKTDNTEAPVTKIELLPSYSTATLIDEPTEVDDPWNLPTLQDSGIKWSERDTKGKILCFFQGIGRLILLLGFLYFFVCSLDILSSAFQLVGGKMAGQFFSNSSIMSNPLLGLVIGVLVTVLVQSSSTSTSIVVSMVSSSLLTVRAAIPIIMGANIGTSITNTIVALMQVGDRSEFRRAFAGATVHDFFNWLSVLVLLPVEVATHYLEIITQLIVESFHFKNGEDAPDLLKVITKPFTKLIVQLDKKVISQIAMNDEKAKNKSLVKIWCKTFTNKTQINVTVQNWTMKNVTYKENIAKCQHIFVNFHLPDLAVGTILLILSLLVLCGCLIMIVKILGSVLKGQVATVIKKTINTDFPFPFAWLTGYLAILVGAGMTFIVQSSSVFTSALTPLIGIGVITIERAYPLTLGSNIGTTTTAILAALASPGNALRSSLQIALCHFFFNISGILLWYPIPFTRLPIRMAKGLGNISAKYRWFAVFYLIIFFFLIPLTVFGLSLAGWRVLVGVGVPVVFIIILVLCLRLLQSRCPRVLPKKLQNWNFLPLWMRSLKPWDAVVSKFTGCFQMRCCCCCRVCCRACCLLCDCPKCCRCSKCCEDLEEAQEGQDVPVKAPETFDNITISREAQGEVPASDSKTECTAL


How the values were obtained:
[1] = molecular target: T3, Construct 5 (chimeric human NaPi2b, swap in NaPi2a in 304-348) (human); assay: flow cytometry, transfected HEK293-6e cells, antibody 200 nM;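 also: cells incubated with antibody for 24 h at 4 °C, background taken as average MFI of unstained cells without primary antibody, at least 1,000 events per well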
T3 construct: also called CL_#13436

[2] = molecular target: T4, Construct 4 (chimeric human NaPi2b, swap in NaPi2c in 341-358) (human); assay: as above
T4 construct: also called CL_#13435

[3] = molecular target: T5, Construct 2 (chimeric human NaPi2b, swap in NaPi2c in 280-301) (human); assay: as above
T5 construct: also called CL_#29915

[4] = molecular target: T1, Full length human NaPi2b …; assay: as above
[5] = molecular target: T6, Construct 1 (chimeric human NaPi2b, swap in NaPi2c in 239-259) (human); assay: as above
T6 construct: also called CL_#29914

[6] = molecular target: T7, Construct 3 (chimeric human NaPi2b, swap in NaPi2c in 304-321) (human); assay: as above
T7 construct: also called CL_#29916

[7] = molecular target: T2, Construct 6 (human NaPi2b del 317-333); assay: as above
[8] = molecular target: T4, Construct 4 (chimeric human NaPi2b, …); assay: flow cytometry, transfected HEK293-6e cells, antibody 2 nM;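 also: transfected cells exposed to test antibody 24 h at 4 °C to block internalization, at least 1,000 events per well, background is mean MFI of unstained cells lacking primary antibody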
[9] = molecular target: T7, Construct 3 (chimeric human NaPi2b, …); assay: as above
[10] = molecular target: T2, Construct 6 (human NaPi2b del 317-333); assay: as above

Binder	Background-Subtracted AF647 Mean Fluorescence Intensity [1]	Background-Subtracted AF647 Mean Fluorescence Intensity [2]	Background-Subtracted AF647 Mean Fluorescence Intensity [3]	Background-Subtracted AF647 Mean Fluorescence Intensity [4]	Background-Subtracted AF647 Mean Fluorescence Intensity [5]	Background-Subtracted AF647 Mean Fluorescence Intensity [6]	Background-Subtracted AF647 Mean Fluorescence Intensity [7]	Background-Subtracted AF647 Mean Fluorescence Intensity [8]	Background-Subtracted AF647 Mean Fluorescence Intensity [9]	Background-Subtracted AF647 Mean Fluorescence Intensity [10]
v38591 (humanized anti-NaPi2b antibody, H1L2, wild-type Fc, heavy chains with C-terminal lysine) (antibody, human IgG1, kappa, Full-size human IgG1/kappa antibody; also called v38591 (wild-type Fc)) heavy: not shown light: DVQMTQSPSSLSASVGDRVTITCRASQDVYSYLNWYQQKPGKAVKLLIYYTSRLQSGVPSRFSGSGSGTDYTLTISSLQPEDFATYYCQQYNIFPWTFGQGTKLEIKRTVAAPSVFIFPPSDEQLKSGTASVVCLLNNFYPREAKVQWKVDNALQSGNSQESVTEQDSKDSTYSLSSTLTLSKADYEKHKVYACEVTHQGLSSPVTKSFNRGEC	204 MFI	933 MFI	1410 MFI	989 MFI	2160 MFI	810 MFI	210 MFI	725 MFI	743 MFI	-38 MFI
MX35 (v18992), reference anti-NaPi2b antibody (antibody, human IgG1, kappa) heavy 1: GQVQLVQSGAEVVKPGASVKMSCKASGYTFTGYNIHWVKQAPGQGLEWIGAIYPGNGDTSYKQKFRGRATLTADTSTSTVYMELSSLRSEDSAVYYCARGETARATFAYWGQGTLVTVSSASTKGPSVFPLAPSSKSTSGGTAALGCLVKDYFPEPVTVSWNSGALTSGVHTFPAVLQSSGLYSLSSVVTVPSSSLGTQTYICNVNHKPSNTKVDKKVEPKSCDKTHTCPPCPAPELLGGPSVFLFPPKPKDTLMISRTPEVTCVVVDVSHEDPEVKFNWYVDGVEVHNAKTKPREEQYNSTYRVVSVLTVLHQDWLNGKEYKCKVSNKALPAPIEKTISKAKGQPREPQVYVYPPSRDELTKNQVSLTCLVKGFYPSDIAVEWESNGQPENNYKTTPPVLDSDGSFALVSKLTVDKSRWQQGNVFSCSVMHEALHNHYTQKSLSLSPG heavy 2: not shown light: GDIQMTQSPSSLSASVGDRVTITCSASQDIGNFLNWYQQKPGKTVKVLIYYTSSLYSGVPSRFSGSGSGTDYTLTISSLQPEDFATYYCQQYSKLPLTFGQGTKLELKRTVAAPSVFIFPPSDEQLKSGTASVVCLLNNFYPREAKVQWKVDNALQSGNSQESVTEQDSKDSTYSLSSTLTLSKADYEKHKVYACEVTHQGLSSPVTKSFNRGEC	219 MFI	764 MFI	1360 MFI	979 MFI	1720 MFI	802 MFI	-2 MFI	611 MFI	594 MFI	-59 MFI
palivizumab (v21995), anti-RSV antibody, negative control (antibody, human IgG1, kappa, V domains shown) VH: QVTLRESGPALVKPTQTLTLTCTFSGFSLSTSGMSVGWIRQPPGKALEWLADIWWDDKKDYNPSLKSRLTISKDTSKNQVVLKVTNMDPADTATYYCARSMITNWYFDVWGAGTTVTVSS VL: DIQMTQSPSTLSASVGDRVTITCKSQLSVGYMHWYQQKPGKAPKLLIYDTSKLASGVPSRFSGSGSGTEFTLTISSLQPDDFATYYCFQGSGYPFTFGGGTKLEIKR	40 MFI	12 MFI	-30 MFI	19 MFI	12 MFI	-5 MFI	2 MFI	1 MFI	19 MFI	11 MFI
lifastuzumab (v18993), reference anti-NaPi2b antibody (antibody, human IgG1, kappa) heavy 1: GEVQLVESGGGLVQPGGSLRLSCAASGFSFSDFAMSWVRQAPGKGLEWVATIGRVAFHTYYPDSMKGRFTISRDNSKNTLYLQMNSLRAEDTAVYYCARHRGFDVGHFDFWGQGTLVTVSSASTKGPSVFPLAPSSKSTSGGTAALGCLVKDYFPEPVTVSWNSGALTSGVHTFPAVLQSSGLYSLSSVVTVPSSSLGTQTYICNVNHKPSNTKVDKKVEPKSCDKTHTCPPCPAPELLGGPSVFLFPPKPKDTLMISRTPEVTCVVVDVSHEDPEVKFNWYVDGVEVHNAKTKPREEQYNSTYRVVSVLTVLHQDWLNGKEYKCKVSNKALPAPIEKTISKAKGQPREPQVYVYPPSRDELTKNQVSLTCLVKGFYPSDIAVEWESNGQPENNYKTTPPVLDSDGSFALVSKLTVDKSRWQQGNVFSCSVMHEALHNHYTQKSLSLSPG heavy 2: not shown light: GDIQMTQSPSSLSASVGDRVTITCRSSETLVHSSGNTYLEWYQQKPGKAPKLLIYRVSNRFSGVPSRFSGSGSGTDFTLTISSLQPEDFATYYCFQGSFNPLTFGQGTKVEIKRTVAAPSVFIFPPSDEQLKSGTASVVCLLNNFYPREAKVQWKVDNALQSGNSQESVTEQDSKDSTYSLSSTLTLSKADYEKHKVYACEVTHQGLSSPVTKSFNRGEC	302 MFI	744 MFI	1230 MFI	893 MFI	1510 MFI	943 MFI	183 MFI	726 MFI	609 MFI	-91 MFI
